The data set can be described thus: self-splicing fitness, log relative to wild type (ln ratio); higher = more splicing; Tetrahymena group I intron in knt gene, E. coli kanamycin selection, DiMSum; sequences stand for … in CUCUCU…GGAGGGAAAAGUUAUCAGGCAUGCACCUGGUAGCUAGUCUUUAAACCAAUAGAUUGCAUCGGUUUAAAAGGCAAGACCGUCAAAUUGCGGGAAAGGGGUCAACAGCCGUUCAGUACCAAGUCUCAGGGGAAACUUUGAGAUGGCCUUGCAAAGGGUAUGGUAAUAAGCUGACGGACAUGGUCCUAACCACGCAGCCAAGUCCUAAGUCAACAGAUCUUCUGUUGAUAUGGAUGCAGUUCACAGACUAAAUGUCGGUCGGGGAAGAUGUAUUCUUCUCAUAAGAUAUAGUCGGACCUCUCCUUAAUGGGAGCUAGCGGAUGAAGUGAUGCAACACUGGAGCCGCUGGGAACUAAUUUGUAUGCGAAAGUAUAUUGAUUAGUUUUGGAGUACUCGUGGUCG
A digest of the protocol: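 The eight P1ex-region nucleotides of an intron in the knt kanamycin-resistance gene on pET-22b(+) were all randomised and the library put into E. coli BL21(DE3). Six replicate transformations were grown overnight at 37°C or 30°C on LB agar with or without 25 μg/mL kanamycin, together with 100 μg/mL carbenicillin, 50 μM IPTG and 0.2% rhamnose. Colonies were pooled and amplicon-sequenced on an Illumina HiSeq 2500. Fitness from DiMSum is the error-weighted combination of wild-type-normalised replicate fold changes, kanamycin over none.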

± gives the uncertainty stated by the source.

For ACGUAGCAAUAUUACGGAAU, the “self-splicing fitness (ln)” value runs as follows: (30 °C) -2.29 ± 0.15; (37 °C) -2.07 ± 0.17.
For UCACAGCAAUAUUACGAAGU, in that order: -2.55 ± 0.22 and -3.34 ± 0.31.
Consider UUAGAGCAAUAUUACGUGGA, for which the “self-splicing fitness (ln)” value is -2.18 ± 0.13 (30 °C) and -1.6 ± 0.12 (37 °C).
For UCGAAGCAAUAUUACGUGAA, in that order: -2.53 ± 0.13 and -1.13 ± 0.12.
The corresponding values for CGGAAGCAAUAUUACGUGGA are -2.79 ± 0.14 and -2.93 ± 0.21.
Regarding UCGAAGCAAUAUUACGAGUC, the “self-splicing fitness (ln)” value (30 °C) is -3.45 ± 0.42.
For CCCUAGCAAUAUUACGGAUG, the “self-splicing fitness (ln)” value was -3.17 ± 0.15 (30 °C) and -1.53 ± 0.11 (37 °C).
Take UGUAAGCAAUAUUACGUCAG: the “self-splicing fitness (ln)” value reads like this: (30 °C) -1.14 ± 0.093; (37 °C) -0.0311 ± 0.11.
On to CAGGAGCAAUAUUACGAGAG, for which the “self-splicing fitness (ln)” value was -1.92 ± 0.15 (30 °C) and -1.67 ± 0.17 (37 °C).
Turning to CCGGAGCAAUAUUACGUCAA, the “self-splicing fitness (ln)” value reads like this: (30 °C) -4.11 ± 0.32; (37 °C) -3.39 ± 0.26.
For CCAAAGCAAUAUUACGCGGU, in that order: -4.85 ± 0.29 and -1.78 ± 0.21.
For UCUAAGCAAUAUUACGAUUA, in that order: -2.61 ± 0.33 and -1.94 ± 0.34.
For CUCUAGCAAUAUUACGGGUG, the “self-splicing fitness (ln)” value (30 °C) was -1.57 ± 0.092 and the “self-splicing fitness (ln)” value (37 °C) was -0.947 ± 0.1.
CCUCAGCAAUAUUACGCACG: the “self-splicing fitness (ln)” value (30 °C) was -2.46 ± 0.17 and the “self-splicing fitness (ln)” value (37 °C) is -1.06 ± 0.18.
For UGGCAGCAAUAUUACGAAUG, in that order: -0.811 ± 0.061 and 0.188 ± 0.079.
As to AAGGAGCAAUAUUACGCUGU, the “self-splicing fitness (ln)” value was -2.59 ± 0.22 (30 °C) and -1.64 ± 0.23 (37 °C).
Take AGUUAGCAAUAUUACGCUUG: the “self-splicing fitness (ln)” value (37 °C) is -1.83 ± 0.23.
Consider GCGUAGCAAUAUUACGACAU, for which the “self-splicing fitness (ln)” value (30 °C) is -0.276 ± 0.014 and the “self-splicing fitness (ln)” value (37 °C) was -0.025 ± 0.033.
For ACUUAGCAAUAUUACGGCAC, in that order: -1.79 ± 0.11 and -1.07 ± 0.14.
For UCCCAGCAAUAUUACGCGUU, in that order: -1.11 ± 0.075 and -0.493 ± 0.089.
For UAAUAGCAAUAUUACGGAAU, in that order: -2.77 ± 0.2 and -1.76 ± 0.2.
For the sequence CAUCAGCAAUAUUACGCUAG, the “self-splicing fitness (ln)” value is, setting by setting: (30 °C) -0.614 ± 0.075; (37 °C) -0.102 ± 0.093.
UGAUAGCAAUAUUACGGGGC: the “self-splicing fitness (ln)” value (30 °C) was -3.5 ± 0.29.
For the sequence ACUUAGCAAUAUUACGCGAC, the “self-splicing fitness (ln)” value is, setting by setting: (30 °C) -2.91 ± 0.13; (37 °C) -2.06 ± 0.17.
The corresponding values for GUCGAGCAAUAUUACGGACA are -1.8 ± 0.49 and -1.95 ± 0.47.
Turning to UAGGAGCAAUAUUACGACAG, the “self-splicing fitness (ln)” value (30 °C) is -2.19 ± 0.33.
With GCCAAGCAAUAUUACGUUGG, the “self-splicing fitness (ln)” value was -3.36 ± 0.27 (30 °C) and -2.6 ± 0.19 (37 °C).
With UAUAAGCAAUAUUACGGUAA, the “self-splicing fitness (ln)” value is -2.02 ± 0.2 (30 °C) and -0.715 ± 0.14 (37 °C).
For UUUGAGCAAUAUUACGGUCA, in that order: -1.47 ± 0.28 and -3.07 ± 0.4.
The corresponding values for ACCCAGCAAUAUUACGGAUU are -0.86 ± 0.048 and -0.157 ± 0.061.
For CACCAGCAAUAUUACGUAGC, in that order: -4.18 ± 0.17 and -2.41 ± 0.14.
As to UUACAGCAAUAUUACGCACC, the “self-splicing fitness (ln)” value reads like this: (30 °C) -2.69 ± 0.21; (37 °C) -0.981 ± 0.23.
Turning to GAGGAGCAAUAUUACGUGUU, the “self-splicing fitness (ln)” value is -3.03 ± 0.21 (30 °C) and -3.82 ± 0.42 (37 °C).
The corresponding values for GGAAAGCAAUAUUACGUUCG are -0.612 ± 0.097 and -0.624 ± 0.14.
The corresponding values for ACCUAGCAAUAUUACGAGGC are -1.58 ± 0.18 and -2.64 ± 0.25.
On to UGCAAGCAAUAUUACGCUUC, for which the “self-splicing fitness (ln)” value is -3.15 ± 0.24 (30 °C) and -3.33 ± 0.32 (37 °C).
On to CUACAGCAAUAUUACGAGCU, for which the “self-splicing fitness (ln)” value is -3.01 ± 0.21 (30 °C) and -2.19 ± 0.19 (37 °C).
For AAGUAGCAAUAUUACGAGUA, in that order: -1.79 ± 0.15 and -1.86 ± 0.18.
For UCUGAGCAAUAUUACGUUAU, in that order: -3.6 ± 0.31 and -3.68 ± 0.42.
The corresponding values for UCGAAGCAAUAUUACGACGG are -1.8 ± 0.17 and -0.892 ± 0.18.
GAUAAGCAAUAUUACGUCGC: the “self-splicing fitness (ln)” value was -1.76 ± 0.22 (30 °C) and -1.17 ± 0.27 (37 °C).
The corresponding values for UGUGAGCAAUAUUACGCAUG are -1.91 ± 0.15 and -1.96 ± 0.22.
For the sequence GUUGAGCAAUAUUACGAGAC, the “self-splicing fitness (ln)” value (37 °C) is -0.388 ± 0.31.
Same read-out and setting: for CGUAAGCAAUAUUACGCUGC the value was -2.3 ± 0.39.
On to GCAUAGCAAUAUUACGGCUU, for which the “self-splicing fitness (ln)” value reads like this: (30 °C) -0.36 ± 0.11; (37 °C) -0.322 ± 0.11.
For CAUAAGCAAUAUUACGCGGA, in that order: -3.61 ± 0.24 and -1.68 ± 0.16.
For ACCCAGCAAUAUUACGGACU, in that order: -0.261 ± 0.044 and 0.0991 ± 0.059.
With CCCCAGCAAUAUUACGGCGA, the “self-splicing fitness (ln)” value is -2.05 ± 0.14 (30 °C) and -1.64 ± 0.14 (37 °C).
For ACGAAGCAAUAUUACGAUGC, in that order: -3.28 ± 0.21 and -2.01 ± 0.37.
For CGAAAGCAAUAUUACGGUAU, in that order: -3.81 ± 0.29 and -1.2 ± 0.19.
For GCAGAGCAAUAUUACGGAUG, in that order: -2.76 ± 0.18 and -1.82 ± 0.22.
With AUCGAGCAAUAUUACGCUUG, the “self-splicing fitness (ln)” value (30 °C) was -2.41 ± 0.18 and the “self-splicing fitness (ln)” value (37 °C) is -1.1 ± 0.3.
For UUAAAGCAAUAUUACGCGUA, in that order: -0.515 ± 0.12 and 0.118 ± 0.14.
For UCUCAGCAAUAUUACGGUGG, in that order: -2.24 ± 0.14 and -2.31 ± 0.18.
For ACCUAGCAAUAUUACGCGAG, in that order: -3.54 ± 0.15 and -1.55 ± 0.11.
With UCCUAGCAAUAUUACGAGCA, the “self-splicing fitness (ln)” value was -1.64 ± 0.42 (30 °C) and -1.11 ± 0.23 (37 °C).
As for UCCGAGCAAUAUUACGGGUU, the “self-splicing fitness (ln)” value runs as follows: (30 °C) -3.41 ± 0.14; (37 °C) -1.9 ± 0.15.
The corresponding values for UCAUAGCAAUAUUACGUAGA are -1.88 ± 0.097 and -1.8 ± 0.12.
Turning to UACUAGCAAUAUUACGACAU, the “self-splicing fitness (ln)” value (30 °C) was -1.645 ± 0.014 and the “self-splicing fitness (ln)” value (37 °C) was -0.715 ± 0.033.
On to UUUAAGCAAUAUUACGACAC, for which, where the note is “30 °C”, the “self-splicing fitness (ln)” value is -2.23 ± 0.44.
On to AUGCAGCAAUAUUACGUGCG, for which the “self-splicing fitness (ln)” value was -0.943 ± 0.061 (30 °C) and -0.294 ± 0.076 (37 °C).
For AACUAGCAAUAUUACGAAUC, in that order: -2.81 ± 0.17 and -1.27 ± 0.19.
As to CCCAAGCAAUAUUACGGCCC, under “30 °C”, the “self-splicing fitness (ln)” value is -2.39 ± 0.47.
For CGCAAGCAAUAUUACGAUCG, the “self-splicing fitness (ln)” value by setting is: (30 °C) -1.19 ± 0.1; (37 °C) -0.342 ± 0.14.
For UGCCAGCAAUAUUACGCAGC, the “self-splicing fitness (ln)” value (37 °C) is -2.15 ± 0.42.
Turning to CAGUAGCAAUAUUACGCCGA, the “self-splicing fitness (ln)” value is -3.13 ± 0.35 (30 °C) and -0.00684 ± 0.18 (37 °C).
For AGCAAGCAAUAUUACGAUUA, in that order: -1.56 ± 0.093 and -0.818 ± 0.081.
The corresponding values for AUCGAGCAAUAUUACGCGUG are -2.55 ± 0.13 and -1.2 ± 0.14.
As to GUAGAGCAAUAUUACGCCGU, the “self-splicing fitness (ln)” value (30 °C) is -1.3 ± 0.33 and the “self-splicing fitness (ln)” value (37 °C) is -0.778 ± 0.45.
The corresponding values for AGCGAGCAAUAUUACGCAGA are -2.67 ± 0.24 and -2.88 ± 0.24.
For the sequence UUCUAGCAAUAUUACGGCUG, the “self-splicing fitness (ln)” value is -2.38 ± 0.21 (30 °C) and -1.6 ± 0.2 (37 °C).
For CCGCAGCAAUAUUACGCCAC, in that order: -3.33 ± 0.29 and -1.81 ± 0.28.
For GAGCAGCAAUAUUACGCUGU, the “self-splicing fitness (ln)” value by setting is: (30 °C) -3.32 ± 0.18; (37 °C) -2.52 ± 0.19.
The corresponding values for GUAGAGCAAUAUUACGAUGA are -1.5 ± 0.1 and -0.479 ± 0.12.
For CAGUAGCAAUAUUACGACCA, in that order: -0.792 ± 0.28 and -0.375 ± 0.27.
For CACAAGCAAUAUUACGAUCA, in that order: -2.43 ± 0.11 and -1.55 ± 0.12.
Regarding UCUGAGCAAUAUUACGUGAU, the “self-splicing fitness (ln)” value by setting is: (30 °C) -3.42 ± 0.23; (37 °C) -1.42 ± 0.44.
As for GUAAAGCAAUAUUACGGCGG, the “self-splicing fitness (ln)” value is -1.39 ± 0.1 (30 °C) and -1.76 ± 0.16 (37 °C).
